These results are taken from patent US20240158474A1 (SINO BIOLOGICAL, published 2024).

One test has as its target T1, HPV58 VLP protein (human papillomavirus type 58, UniProt P26535 27-499).
T1 construct: Complete VLP protein; no limits of the construct printed, whole entry named; also called P58SHELL
T1 sequence: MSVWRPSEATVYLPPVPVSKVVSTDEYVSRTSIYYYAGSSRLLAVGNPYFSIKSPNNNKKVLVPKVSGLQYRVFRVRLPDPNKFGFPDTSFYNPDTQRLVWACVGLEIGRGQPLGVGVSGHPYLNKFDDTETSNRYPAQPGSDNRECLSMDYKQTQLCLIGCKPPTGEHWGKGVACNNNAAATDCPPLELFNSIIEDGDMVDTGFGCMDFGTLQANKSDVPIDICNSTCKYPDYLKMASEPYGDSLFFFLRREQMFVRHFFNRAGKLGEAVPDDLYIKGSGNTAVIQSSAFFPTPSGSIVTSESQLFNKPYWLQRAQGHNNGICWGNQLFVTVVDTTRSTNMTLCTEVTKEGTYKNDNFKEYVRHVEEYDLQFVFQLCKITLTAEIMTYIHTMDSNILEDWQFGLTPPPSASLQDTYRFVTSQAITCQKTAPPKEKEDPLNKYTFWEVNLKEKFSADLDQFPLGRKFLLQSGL
The experiment in a line: indirect ELISA, VLP coated at 2 µg/mL, antibody 10 ng/mL, HRP goat anti-rabbit Fc.

The target in another test is T2, HPV11 VLP protein (human papillomavirus type 11; human …, UniProt P04012 1-470; P06416 474-499).
T2 construct: range 1-470;range 474-499; Complete VLP protein used as coating protein
T2 sequence: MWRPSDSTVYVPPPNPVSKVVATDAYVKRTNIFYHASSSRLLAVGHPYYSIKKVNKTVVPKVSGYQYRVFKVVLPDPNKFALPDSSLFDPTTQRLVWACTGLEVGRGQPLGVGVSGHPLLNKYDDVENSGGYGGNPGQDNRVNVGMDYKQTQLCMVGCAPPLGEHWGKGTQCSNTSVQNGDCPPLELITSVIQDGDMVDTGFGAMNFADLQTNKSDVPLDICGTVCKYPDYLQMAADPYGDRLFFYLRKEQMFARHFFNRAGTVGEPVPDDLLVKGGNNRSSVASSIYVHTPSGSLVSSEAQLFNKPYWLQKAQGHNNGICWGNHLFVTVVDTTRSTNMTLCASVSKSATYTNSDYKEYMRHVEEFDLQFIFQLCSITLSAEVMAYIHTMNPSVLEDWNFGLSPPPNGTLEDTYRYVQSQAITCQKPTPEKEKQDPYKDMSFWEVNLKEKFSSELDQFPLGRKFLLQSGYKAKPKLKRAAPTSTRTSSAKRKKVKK
The test is described as above.

A further test has as its target T3, HPV51 VLP protein (human papillomavirus type 51, UniProt P26536 1-474).
T3 construct: Complete VLP protein; no limits of the construct printed, whole entry named; also called HPV51L1
T3 sequence: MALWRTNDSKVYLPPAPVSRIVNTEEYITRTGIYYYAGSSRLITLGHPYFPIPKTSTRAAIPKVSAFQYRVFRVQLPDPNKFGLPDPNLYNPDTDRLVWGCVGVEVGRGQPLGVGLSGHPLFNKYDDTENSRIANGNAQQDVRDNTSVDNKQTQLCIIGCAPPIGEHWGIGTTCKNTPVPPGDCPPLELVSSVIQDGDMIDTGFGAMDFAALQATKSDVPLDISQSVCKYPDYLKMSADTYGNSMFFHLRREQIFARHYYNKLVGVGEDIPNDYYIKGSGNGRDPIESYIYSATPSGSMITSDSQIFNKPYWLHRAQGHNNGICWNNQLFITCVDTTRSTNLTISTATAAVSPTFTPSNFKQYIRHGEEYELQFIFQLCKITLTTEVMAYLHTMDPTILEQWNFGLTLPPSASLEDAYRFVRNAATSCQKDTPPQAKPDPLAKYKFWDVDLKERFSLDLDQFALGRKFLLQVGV
The experiment in a line: double-antibody sandwich ELISA on the mixture of 13 HPV VLPs.

In a further test the target is T4, HPV33 VLP protein (human papillomavirus type 33, UniProt P06416 1-499).
T4 construct: Complete VLP protein; no limits of the construct printed, whole entry named; also called HPV33L1
T4 sequence: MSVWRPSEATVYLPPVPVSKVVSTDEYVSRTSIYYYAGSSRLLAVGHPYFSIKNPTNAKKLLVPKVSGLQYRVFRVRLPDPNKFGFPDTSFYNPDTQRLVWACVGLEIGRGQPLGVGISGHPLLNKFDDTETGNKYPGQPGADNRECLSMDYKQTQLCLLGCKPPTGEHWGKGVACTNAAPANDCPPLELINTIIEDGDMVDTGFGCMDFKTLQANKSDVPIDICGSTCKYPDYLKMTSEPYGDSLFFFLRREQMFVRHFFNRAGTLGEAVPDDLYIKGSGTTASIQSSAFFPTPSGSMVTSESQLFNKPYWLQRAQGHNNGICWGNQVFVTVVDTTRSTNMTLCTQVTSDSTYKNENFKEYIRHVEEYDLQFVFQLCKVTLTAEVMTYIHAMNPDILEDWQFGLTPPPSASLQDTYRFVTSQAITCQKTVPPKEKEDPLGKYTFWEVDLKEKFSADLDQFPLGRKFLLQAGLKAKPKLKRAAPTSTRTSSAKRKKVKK
The test is described as above.

The next test has as its target T5, HPV16 VLP protein (human papillomavirus type 16, UniProt P03101 1-474).
T5 construct: Complete VLP protein; no limits of the construct printed, whole entry named; also called HPV-16L1
T5 sequence: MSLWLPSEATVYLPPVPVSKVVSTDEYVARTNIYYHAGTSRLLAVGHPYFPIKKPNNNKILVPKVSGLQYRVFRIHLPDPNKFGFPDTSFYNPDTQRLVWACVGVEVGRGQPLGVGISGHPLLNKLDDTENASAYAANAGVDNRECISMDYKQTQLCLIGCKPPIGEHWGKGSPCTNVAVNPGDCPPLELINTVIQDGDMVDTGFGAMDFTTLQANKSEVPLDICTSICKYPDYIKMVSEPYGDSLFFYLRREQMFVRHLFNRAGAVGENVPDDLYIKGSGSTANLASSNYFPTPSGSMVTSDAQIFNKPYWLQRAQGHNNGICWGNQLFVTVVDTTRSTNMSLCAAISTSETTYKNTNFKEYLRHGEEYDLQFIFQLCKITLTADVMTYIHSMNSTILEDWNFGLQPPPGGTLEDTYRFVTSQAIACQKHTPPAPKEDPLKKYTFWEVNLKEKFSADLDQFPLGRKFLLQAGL
The description is as above.

B1: monoclonal antibody HPV6-R003 (antibody, V domains shown)
VH: QQQLEESGGGLVKPGGTLTLTCKASGIDLSNYYMCWVRQAPGKGLEWIGCIYTGSGRTYYASWAKGRFTISKASSTTVTLQMTSLTAADTATYFCARDYLGWRASNIWGPGTLVTVSS
VL: ELVMTQTPSSVSAAVGGTVTINCQASQSVYSNNLVWYQQKPGQPPKLLIYGASTLASGVPSRFKGSGSGTQFTLTISDVVCDDAATYYCGGYVSDSTDGTAFGGGTEVVVKG
notes: here built from variable plus constant region so that the signal peptides are left out; In the sandwich ELISA the same antibody is used as coating antibody and, labelled with horseradish peroxidase, as detection antibody; also called anti-HPV6 L1 protein antibody
For the molecule B1, the OD450-blank was 0.044 OD450 in the test with HPV58 VLP protein and 0.053 OD450 in the test with HPV11 VLP protein. Moreover, the binding result is given as “no binding (tested: mixture 50 ng/mL, each subtype 1/13)” in the test with HPV51 VLP protein; “no binding (tested: mixture 50 ng/mL, each subtype 1/13)” with HPV33 VLP protein; “no binding (tested: mixture 50 ng/mL, each subtype 1/13)” with HPV16 VLP protein.
